These results are taken from the RNAGym collection of RNA variant scans (doi:10.1093/molbev/msab373).

B1: Azoarcus group I ribozyme (parent)
chain: GUGCCUUGCGCCGGGAAACCACGCAAGGGAUGGUGUCAAAUUCGGCGAAACCUAAGCGCCCGCCCGGGCGUAUGGCAACGCCGAGCCAAGCUUCGGCGCCUGCGCCGAUGAAGGUGUAGAGACUAGACGGCACCCACCUAAGGCAAACGCUAUGGUGAAGGCAUAGUCCAGGGAGUGGCGAAAGUCACACAAACCGG

The variants in the data set derive from B1. The experiment in a line: reverse-splicing fitness (ratio to wild type); higher = more active; in vitro selection; Mg2+ level not given. In outline:
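An in vitro group I ribozyme library with randomized positions was T7-transcribed and gel-purified. In triplicate, 10 pmol RNA in EPPS pH 7.5 was reacted with 50 pmoles of a 30-nt RNA substrate for 1 h at 37 °C across several added MgCl2 levels (1–48 mM), then stopped with EDTA. Products were reverse transcribed from a substrate-complementary primer, PCR-amplified and sequenced (HiSeq 4000). Fitness is a variant's read proportion after selection over that before, normalised to wild type.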
Regarding GUGCCUUGCGCCGGGAAACCACGCAAGGGAUGGUGUCAAAUUCGGCGAAACCUAAGCGCCCGCCCGGGCGUAUGGCAACGCCGAGCCAAGCUUCGGCGCCUGCGCCGAUGCAGGUGUAGUGACUAGACGGCACCCACCUAAGGCAAACGCUAUGGUGAAGGCAUAGUCGAGGGAGGGGCGAAAGUCACACAAACCGG [A111C A120U C169G U176G], the reverse-splicing fitness came to 0.00154. Then GUGCCUUGCGCCGGGAAACCACGCAAGGGAUGGUGUCAAAUUCGGCGAAACCUAAGCGCCCGCCCGGGCGUAUGGCAACGCCGAGCCAAGCUUCGGCGCCUGCGCCGAUGCAGGUGUAGUGACUAGACGGCACCCACCUAAGGCAAACGCUAUGGUGAAGGCAUAGUCGAGGGAGAGGCGAAAGUCACACAAACCGG [A111C A120U C169G U176A], with 0.00529; and GUGCCUUGCGCCGGGAAACCACGCAAGGGAUGGUGUCAAAUUCGGCGAAACCUAAGCGCCCGCCCGGGCGUAUGGCAACGCCGAGCCAAGCUUCGGCGCCUGCGCCGAUGCAGGUGUAGUGACUAGACGGCACCCACCUAAGGCAAACGCUAUGGUGAAGGCAUAGUCGAGGGAGCGGCGAAAGUCACACAAACCGG [A111C A120U C169G U176C], with 0.00999. With GUGCCUUGCGCCGGGAAACCACGCAAGGGAUGGUGUCAAAUUCGGCGAAACCUAAGCGCCCGCCCGGGCGUAUGGCAACGCCGAGCCAAGCUUCGGCGCCUGCGCCGAUGCAGGUGUAGAGACUAGACGGCACCCACCUAAGGCCAACGAUAUGGUGAAGGCAUAGUCAAGGGAGCGGCGAAAGUCACACAAACCGG [A111C A145C C150A C169A U176C] the figure was 0.00898. With GUGCCUUGCGCCGGGAAACCACGCAAGGGAUGGUGUCAAAUUCGGCGAAACCUAAGCGCCCGCCCGGGCGUAUGGCAACGCCGAGCCAAGCUUCGGCGCCUGCGCCGAUGCAGGUGUAGAGACUAGACGGCACCCACCUAAGGCCAACGAUAUGGUGAAGGCAUAGUCAAGGGAGGGGCGAAAGUCACACAAACCGG [A111C A145C C150A C169A U176G] the figure was 0.00714; with GUGCCUUGCGCCGGGAAACCACGCAAGGGAUGGUGUCAAAUUCGGCGAAACCUAAGCGCCCGCCCGGGCGUAUGGCAACGCCGAGCCAAGCUUCGGCGCCUGCGCCGAUGCAGGUGUAGAGACUAGACGGCACCCACCUAAGGCCAACGAUAUGGUGAAGGCAUAGUCAAGGGAGAGGCGAAAGUCACACAAACCGG [A111C A145C C150A C169A U176A], 0.0117; with GUGCCUUGCGCCGGGAAACCACGCAAGGGAUGGUGUCAAAUUCGGCGAAACCUAAGCGCCCGCCCGGGCGUAUGGCAACGCCGAGCCAAGCUUCGGCGCCUGCGCCGAUGCAGGUGUAGAGACUAGACGGCACCCACCUAAGGCCAACGAUAUGGUGAAGGCAUAGUCCAGGGAGUGGCGAAAGUCACACAAACCGG [A111C A145C C150A], 0.15. Consider GUGCCUUGCGCCGGGAAACCACGCAAGGGAUGGUGUCAAAUUCGGCGAAACCUAAGCGCCCGCCCGGGCGUAUGGCAACGCCGAGCCAAGCUUCGGCGCCUGCGCCGAUGCAGGUGUAGUGACUAGACGGCACCCACCUAAGGCAAACGUUAUGGUGAAGGCAUAGUCCAGGGAGGGGCGAAAGUCACACAAACCGG [A111C A120U C150U U176G], for which the reverse-splicing fitness turned out to be 0.0367. With GUGCCUUGCGCCGGGAAACCACGCAAGGGAUGGUGUCAAAUUCGGCGAAACCUAAGCGCCCGCCCGGGCGUAUGGCAACGCCGAGCCAAGCUUCGGCGCCUGCGCCGAUGCAGGUGUAGUGACUAGACGGCACCCACCUAAGGCAAACGUUAUGGUGAAGGCAUAGUCCAGGGAGCGGCGAAAGUCACACAAACCGG [A111C A120U C150U U176C] the figure was 0.194; with GUGCCUUGCGCCGGGAAACCACGCAAGGGAUGGUGUCAAAUUCGGCGAAACCUAAGCGCCCGCCCGGGCGUAUGGCAACGCCGAGCCAAGCUUCGGCGCCUGCGCCGAUGCAGGUGUAGAGACUAGACGGCACCCACCUAAGGCCAACGAUAUGGUGAAGGCAUAGUCGAGGGAGAGGCGAAAGUCACACAAACCGG [A111C A145C C150A C169G U176A], 0.0274. As for GUGCCUUGCGCCGGGAAACCACGCAAGGGAUGGUGUCAAAUUCGGCGAAACCUAAGCGCCCGCCCGGGCGUAUGGCAACGCCGAGCCAAGCUUCGGCGCCUGCGCCGAUGCAGGUGUAGAGACUAGACGGCACCCACCUAAGGCCAACGAUAUGGUGAAGGCAUAGUCGAGGGAGGGGCGAAAGUCACACAAACCGG [A111C A145C C150A C169G U176G], the reverse-splicing fitness came out at 0.00627. With GUGCCUUGCGCCGGGAAACCACGCAAGGGAUGGUGUCAAAUUCGGCGAAACCUAAGCGCCCGCCCGGGCGUAUGGCAACGCCGAGCCAAGCUUCGGCGCCUGCGCCGAUGCAGGUGUAGAGACUAGACGGCACCCACCUAAGGCCAACGAUAUGGUGAAGGCAUAGUCGAGGGAGCGGCGAAAGUCACACAAACCGG [A111C A145C C150A C169G U176C] the figure was 0.0189. Regarding GUGCCUUGCGCCGGGAAACCACGCAAGGGAUGGUGUCAAAUUCGGCGAAACCUAAGCGCCCGCCCGGGCGUAUGGCAACGCCGAGCCAAGCUUCGGCGCCUGCGCCGAUGCAGGUGUAGUGACUAGACGGCACCCACCUAAGGCAAACGCUAUGGUGAAGGCAUAGUCCAGGGAGGGGCGAAAGUCACACAAACCGG [A111C A120U U176G], the reverse-splicing fitness was determined as 0.0937.

In the case of GUGCCUUGCGCCGGGAAACCACGCAAGGGAUGGUGUCAAAUUCGGCGAAACCUAAGCGCCCGCCCGGGCGUAUGGCAACGCCGAGCCAAGCUUCGGCGCCUGCGCCGAUGCAGGUGUAGUGACUAGACGGCACCCACCUAAGGCAAACGCUAUGGUGAAGGCAUAGUCCAGGGAGAGGCGAAAGUCACACAAACCGG [A111C A120U U176A], the reverse-splicing fitness is 0.22. With GUGCCUUGCGCCGGGAAACCACGCAAGGGAUGGUGUCAAAUUCGGCGAAACCUAAGCGCCCGCCCGGGCGUAUGGCAACGCCGAGCCAAGCUUCGGCGCCUGCGCCGAUGCAGGUGUAGUGACUAGACGGCACCCACCUAAGGCAAACGCUAUGGUGAAGGCAUAGUCCAGGGAGCGGCGAAAGUCACACAAACCGG [A111C A120U U176C] the figure was 0.257.
